Measured values: article PMC8800120
“And” between values parts separate entries of the source, which are not always exact repeats. Identical values can stand only once.

How the values were obtained:
Experiment in all cases: EMSA
[1] = test system: alpha-synuclein (aSyn) (human); settings: EMSA: 11 mM Tris, 1 mM EDTA, 50 mM NaCl, pH 8.0-8.5, 20 min on ice then 30 min RT, mutants/deltaNAC: 4 ul protein in 20 mM Tris-HCl, 200 mM NaCl in 10 ul, 0.5% …
[2] = test system: gamma-synuclein (gSyn) (human); settings: up to 57 uM protein, 4 nM DNA; EMSA: 11 mM Tris, 1 mM EDTA, 50 mM NaCl, pH 8.0-8.5, 20 min on ice then 30 min RT; mutants/deltaNAC: 4 ul protein in 20 mM Tris-HCl, 200 mM NaCl in 10 ul, 0.5% …
[3] = test system: phospho-S129 alpha-synuclein (pSyn) (human); settings: EMSA: 11 mM Tris, 1 mM EDTA, 50 mM NaCl, pH 8.0-8.5, 20 min on ice then 30 min RT, mutants/deltaNAC: 4 ul protein in 20 mM Tris-HCl, 200 mM NaCl in 10 ul, 0.5% …
[4] = test system: aSyn A53T (human); settings: 1.4 uM protein, 1.3 nM DNA; EMSA: 11 mM Tris, 1 mM EDTA, 50 mM NaCl, pH 8.0-8.5, 20 min on ice then 30 min RT; mutants/deltaNAC: 4 ul protein in 20 mM Tris-HCl, 200 mM NaCl in 10 ul, 0.5% …
[5] = test system: aSyn A30P (human); settings: 1.4 uM protein, 1.3 nM DNA; EMSA: 11 mM Tris, 1 mM EDTA, 50 mM NaCl, pH 8.0-8.5, 20 min on ice then 30 min RT; mutants/deltaNAC: 4 ul protein in 20 mM Tris-HCl, 200 mM NaCl in 10 ul, 0.5% …
[6] = test system: beta-synuclein (bSyn) (human); settings: up to 57 uM protein, 4 nM DNA; EMSA: 11 mM Tris, 1 mM EDTA, 50 mM NaCl, pH 8.0-8.5, 20 min on ice then 30 min RT; mutants/deltaNAC: 4 ul protein in 20 mM Tris-HCl, 200 mM NaCl in 10 ul, 0.5% …
[7] = test system: deltaNAC aSyn (human); settings: 1.4 uM protein, 1.3 nM DNA; EMSA: 11 mM Tris, 1 mM EDTA, 50 mM NaCl, pH 8.0-8.5, 20 min on ice then 30 min RT; mutants/deltaNAC: 4 ul protein in 20 mM Tris-HCl, 200 mM NaCl in 10 ul, 0.5% …
[8] = test system: aSyn E46K (human); settings: 1.4 uM protein, 1.3 nM DNA; EMSA: 11 mM Tris, 1 mM EDTA, 50 mM NaCl, pH 8.0-8.5, 20 min on ice then 30 min RT; mutants/deltaNAC: 4 ul protein in 20 mM Tris-HCl, 200 mM NaCl in 10 ul, 0.5% …

**Q.** For “300 bp linear DNA (ends not specified for the experiment)”, which K half ([1]; 0.1 nM DNA) is on record?
**A.** 273 nM

**Q.** And the K half ([1]; 6 nM DNA)?
**A.** 5850 nM

**Q.** And the binding signal (fraction shifted) ([1]; 1.4 uM protein, 1.3 nM DNA, deltaNAC series)?
**A.** 0.597

**Q.** And the binding signal (fraction shifted) ([1]; 1.4 uM protein, 1.3 nM DNA, point mutant series)?
**A.** 0.55

**Q.** What about the binding signal (fraction shifted) ([1]; 57 uM protein, 4 nM DNA, paralog series) of the same substance?
**A.** 0.199

**Q.** And the binding signal (fraction shifted) [1]?
**A.** 1 and 0.997

**Q.** And the binding signal (fraction shifted) [2]?
**A.** 0

**Q.** What about the K half ([3]; 0.1 nM DNA) of the same substance?
**A.** 27.3 µM

**Q.** What about the K half ([3]; 6 nM DNA) of the same substance?
**A.** 32.5 µM

**Q.** What about the binding signal (fraction shifted) [4] of the same substance?
**A.** 0.379

**Q.** And the binding signal (fraction shifted) [5]?
**A.** 0.27

**Q.** What about the binding signal (fraction shifted) [6] of the same substance?
**A.** 0

**Q.** And the binding signal (fraction shifted) [7]?
**A.** 1

**Q.** And the binding signal (fraction shifted) [8]?
**A.** 0.975

**Q.** How did the binding signal (fraction shifted) [1] turn out when 400 bp DNA was run?
**A.** 0.947

**Q.** And the binding signal (fraction shifted) [3]?
**A.** 0.927

**Q.** With 300 bp DNA (length series) as the substance, how does the binding signal (fraction shifted) [1] read?
**A.** 0.803

**Q.** And the binding signal (fraction shifted) [3]?
**A.** 0.617

**Q.** Which binding signal (fraction shifted) [1] does the source give for “300 bp linear DNA with 4-base 5' overhangs” here?
**A.** 0.917

**Q.** What about the binding signal (fraction shifted) [3] of the same substance?
**A.** 0.573

**Q.** Which results are given for 300 bp linear DNA, blunt?
**A.** binding signal (fraction shifted) [1]: 0.857; binding signal (fraction shifted) [3]: 0.607

**Q.** How did the binding signal (fraction shifted) ([1]; 57 uM aSyn) turn out when 300 bp DNA, 67% GC was run?
**A.** 0.693

**Q.** With 200 bp DNA as the substance, how does the binding signal (fraction shifted) [1] read?
**A.** 0.74

**Q.** What about the binding signal (fraction shifted) [3] of the same substance?
**A.** 0.12

**Q.** Which results are given for 125 bp DNA?
**A.** binding signal (fraction shifted) [1]: 0.327; binding signal (fraction shifted) [3]: 0.007

**Q.** Which binding signal (fraction shifted) [1] does the source give for 500 bp DNA here?
**A.** 1

**Q.** What about the binding signal (fraction shifted) [3] of the same substance?
**A.** 1

**Q.** Which K half ([1]; covalently closed circle, topoisomer) does the source give for “304 bp circular DNA topoisomer (made with HMGB1)” here?
**A.** 1640 nM

**Q.** For 300 bp DNA, 56% GC, which binding signal (fraction shifted) ([1]; 57 uM aSyn) is on record?
**A.** 0.81

**Q.** Which K half ([1]; covalently closed circle) does the source give for 304 bp circular DNA (made with HMGB1) here?
**A.** 1610 nM
